Several values for one entry are separate records, joined by “and”; a condition that tells them apart may be missing. Equal entries are not always repeated. Square brackets hold non-standard residues; d marks the D form. Ends that are not written are not given here. Peptide text beside a SMILES is read from it. * marks the point of attachment. BODIPY(FL) = CC1=CC(C)=[N+]2C1=Cc1ccc(CCC(=O)*)n1[B-]2(F)F; pS = N[C@@H](COP(=O)(O)O)C(=O)O
Assays:
[1] = target: T1, RSV-N(13-391) (Human respiratory syncytial virus A, UniProt P03418); experiment: biochemical; conditions: from ΔG = RT ln Kd and IC50 = 2 × Kd; 10 mM Tris-HCl pH 7.5 at 21°C; approximate
Experimental: (§1) Samples of 10 μl containing peptides and proteins as indicated were prepared in buffer composed of 10 mM Tris-HCl (pH 7.5) +0.01% Brij-35 detergent (Pierce Surfact-Amps-35, Thermo Fisher Scientific, Rockford, IL) in low-volume 384-well black polystyrene assay plates (Thermo Fisher Scientific, Hudson, NH). After a 5 minute incubation, fluorescence anisotropy was measured with a Pherastar plate reader (BMG Labtech, Cary, NC) equipped with a filter module having a 485 nm excitation filter and 520 nm emission filters with polarizers. The focal height was 10.8 mm. Each measurement used 50 flashes. The parallel and perpendicular detector gains were set to 392 and 366 in order to produce an anisotropy of about 0.03 in the absence of binding.
The averages of triplicate anisotropy measurements made at each competitor concentration were used to calculate % inhibition using the equation %inhibition=1001–r–rmin/rmax–rmin where r is the anisotropy at the competitor concentration, rmin is the anisotropy with no RSV-N(13-391), and rmax is the anisotropy with no competititor.
(§2) All fluorescence anisotropy measurements were performed at ambient temperature, approximately 21°C.
For the BP5 competition assay, the P protein storage buffer was replaced by repeated concentration using centrifugal ultrafiltration with a Millipore Ultrafree 0.5 unit with Biomax-10 membrane (EMD Millipore, Billerica, MA) and dilution with 10 mM Tris-HCl (pH 7.5). The protein concentration was determined by the method of Bradford using bovine serum albumin as the standard. Serial dilutions of P were prepared in 10 mM Tris-HCl (pH 7.5) +0.01% Brij-35.

[2] = target: T2, 15N-labeled N(31-252) (Human respiratory syncytial virus A, UniProt P03418); experiment: 2-D NMR [15N,1H] TROSY titration, chemical shift perturbation; format: binding, human respiratory syncytial virus (strain A2); conditions: 0.15 mM 15N N(31-252); 25 mM HEPES pH 7.5, 100 mM NaCl, 1 mM DTT, 1 mM EDTA; 298 K; global best fit ± standard error of fit; read-out: Kd measured by NMR
T2 construct: His6 (N); TEV protease cleavage recognition site (N); made in house; host or cells: E. coli BL21(DE3)pLysS, M9 minimal medium with [15N]; NH4Cl
Experimental: NMR spectra were acquired at 298 K with a 600 MHz NMR instrument (Bruker, Billerica MA) equipped with an AVANCE III console and a triple-resonance cryogenic probe. Samples were at pH 7.5 in a 25 mM HEPES buffer containing 100 mM NaCl, 1 mM dithiothreitol, and 1 mM EDTA. The concentration of ^15N labeled RSV N(31-252) was 0.15 mM. Two-dimensional [^15N, ^1H] transverse relaxation optimized spectroscopy (TROSY) experiments were recorded with increasing ligand concentration. Evolution times were approximately 53 ms in the ^1H dimension and 29 ms in the ^15N dimension. The total acquisition time was 28 min per experiment.
To estimate the dissociation constant (Kd) from NMR experiments, ^15N-RSV N(31-252) was titrated with a range of ligand concentrations. The weighted average of chemical shift changes (Δδ(N, H)obs) is calculated using the following equation: ΔδN,Hobs=ΔδHN^2+ΔδΝ/5^2 where ΔδHN and ΔδN are the chemical shift changes of amide protons and nitrogens, respectively. Then Δδ(N, H)obs data were fitted by non-linear regression globally against the total concentration of the subtrate (LT) with the equation: ΔδN,Hobs=ΔδN,HmaxKd+LT+ET‐Kd+LT+ET^2−4LTET/2ET where Δδ(N, H)max is the maximum chemical shift difference, ET is the total concentration of N(31-352) in the solution, and LT is the total concentration of ligand.

[3] = target: T1, RSV-N(13-391)
Experimental: as §1
The averages of triplicate fluorescence anisotropy measurements made at each RSV-N(13-391) concentration were fit to the equation y=yo+aN/Kd+N where y is the anisotropy, yo is the anisotropy of peptide alone, [N] is the RSV-N(13-391) concentration, and yo + a is the anisotropy of fully bound peptide.
as §2

[4] = target: T3, RSV N(13-391), N-terminally truncated nucleocapsid protein (human respiratory syncytial virus, …, UniProt P03418 13-391); experiment: SPR; Biacore T200; His10-P immobilised on NTA chip (nickel capture, amine coupling); 100 nM N(13-391) mixed with peptide series; 20 mM HEPES-NaOH pH 7.5, 100 mM NaCl, 1 mM EDTA, 1 mM TCEP, 0.005% Tween 20, 1% DMSO; conditions: both partners purified
T3 construct: source: E. coli BL21(DE3)pLysS, purified (Ni2+ chelating, Q-Sepharose, Superdex 200)
T3 sequence: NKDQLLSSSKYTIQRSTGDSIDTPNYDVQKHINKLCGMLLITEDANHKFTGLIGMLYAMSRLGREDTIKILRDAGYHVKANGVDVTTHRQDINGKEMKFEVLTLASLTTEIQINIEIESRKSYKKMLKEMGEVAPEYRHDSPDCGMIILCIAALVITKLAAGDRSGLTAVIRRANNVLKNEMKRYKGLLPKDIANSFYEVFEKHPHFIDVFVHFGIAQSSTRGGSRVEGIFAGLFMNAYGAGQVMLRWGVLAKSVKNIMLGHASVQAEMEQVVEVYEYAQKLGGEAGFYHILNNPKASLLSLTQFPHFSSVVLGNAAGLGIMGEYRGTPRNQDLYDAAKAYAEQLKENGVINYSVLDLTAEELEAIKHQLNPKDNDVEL

[5] = target: T3, RSV N(13-391), N-terminally truncated …; experiment: fluorescence polarisation; fluorescence anisotropy, competition with 25 nM BP5 and 75 nM N(13-391), competitor varied; 10 mM Tris-HCl pH 7.5, 0.01% Brij-35; about 21 °C; conditions: both partners purified
[6] = target: T3, RSV N(13-391), N-terminally truncated …; experiment: as above; conditions: both partners purified; remark: listed apart in the source
[7] = target: T4, RSV N(31-252), nucleocapsid construct consisting of residues 31-252 (human respiratory syncytial virus, …, UniProt P03418 31-252); experiment: NMR titration; 2-D [15N,1H] TROSY of 0.15 mM 15N-labeled N(31-252) with increasing ligand; 25 mM HEPES pH 7.5, 100 mM NaCl, 1 mM DTT, 1 mM EDTA; 298 K; conditions: both partners purified
T4 construct: source: E. coli BL21(DE3)pLysS, purified (Ni2+ chelating, Superdex 200)
T4 sequence: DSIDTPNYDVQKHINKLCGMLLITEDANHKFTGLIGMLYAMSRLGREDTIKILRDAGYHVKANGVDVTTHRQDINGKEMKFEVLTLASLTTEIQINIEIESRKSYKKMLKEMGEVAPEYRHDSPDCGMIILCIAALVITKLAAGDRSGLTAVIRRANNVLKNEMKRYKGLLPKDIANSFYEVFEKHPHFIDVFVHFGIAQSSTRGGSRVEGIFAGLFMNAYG

[8] = target: T3, RSV N(13-391), N-terminally truncated …; experiment: fluorescence polarisation; fluorescence anisotropy, direct binding; 100 nM BP1 or 25 nM BP5, N(13-391) varied; 10 mM Tris-HCl pH 7.5, 0.01% Brij-35; about 21 °C; conditions: both partners purified
[9] = target: T3, RSV N(13-391), N-terminally truncated …; experiment: fluorescence polarisation; conditions: both partners purified

## DSDNDLSLEDF
[1]
  ΔG of binding to RNA-free N(13-391): -6.9 kcal/mol

## N[C@@H](CC(=O)O)C(=O)N[C@@H](Cc1ccccc1)C(=O)O [DF, Asp-Phe, reference compound] (H-Asp-Phe-OH)
[2]
  Kd: 2600 µM

## CC(C)C[C@H](NC(=O)[C@H](COP(=O)(O)O)NC(=O)[C@H](CC(C)C)NC(=O)[C@H](CC(=O)O)NC(=O)[C@H](CC(N)=O)NC(=O)[C@H](CC(=O)O)NC(=O)[C@H](COP(=O)(O)O)NC(=O)[C@@H](N)CC(=O)O)C(=O)N[C@@H](CCC(=O)O)C(=O)N[C@@H](CC(=O)O)C(=O)N[C@@H](C)C(=O)O [D(pS)DNDL(pS)LEDA]
[1]
  ΔG of binding to RNA-free N(13-391): -6.0 kcal/mol

## Cc1cc(C)n2c1C=C1C=CC(CCC(=O)N[C@@H](CC(=O)O)C(=O)N[C@@H](COP(=O)(O)O)C(=O)N[C@@H](CC(=O)O)C(=O)N[C@@H](CC(N)=O)C(=O)N[C@@H](CC(=O)O)C(=O)N[C@@H](CC(C)C)C(=O)N[C@@H](COP(=O)(O)O)C(=O)N[C@@H](CC(C)C)C(=O)N[C@@H](CCC(=O)O)C(=O)N[C@@H](CC(=O)O)C(=O)N[C@@H](Cc3ccccc3)C(=O)O)=[N+]1[B-]2(F)F [BP5] ({BODIPY(FL)}-D[pS]DNDL[pS]LEDF-OH)
[3]; Kds measured with N(13-391) 1.95 to 2000 nM in triplicate, Figure 1B
  Effect of KCl concentration (ionic strength) on affinity for N(13-391): diminished as the ionic strength increased
[3]; ratio of Kds for N(13-391)
  affinity relative to unphosphorylated peptide BP1: about 10 times

## CC(C)C[C@H](NC(=O)[C@H](COP(=O)(O)O)NC(=O)[C@H](CC(C)C)NC(=O)[C@H](CC(=O)O)NC(=O)[C@H](CC(N)=O)NC(=O)[C@H](CC(=O)O)NC(=O)[C@H](COP(=O)(O)O)NC(=O)[C@@H](N)CC(=O)O)C(=O)N[C@@H](CCC(=O)O)C(=O)N[C@@H](CC(=O)O)C(=O)N[C@@H](Cc1ccccc1)C(=O)O [D(pS)DNDL(pS)LEDF] (H-D[pS]DNDL[pS]LEDF-OH)
[1]
  ΔG of binding to RNA-free N(13-391): -8.7 kcal/mol

B1: peptide 5, D(pS)DNDL(pS)LEDF (doubly phosphorylated P C-terminal peptide) (peptide)
peptide: D[pS]DNDL[pS]LEDF
notes: residues 231-241 of RSV phosphoprotein P; N- and C-termini uncapped; source: synthetic peptide (Biopeptide Co.)
[4]
  IC50: 13.6 µM
[5]
  Kd: ~0.34 µM
[6]
  IC50: 0.61 µM and 0.74 µM
[7]
  Kd: 74 µM

B2: BP1, BODIPY-FL labeled peptide 1 (DSDNDLSLEDF) (peptide)
peptide: {BODIPY(FL)}-DSDNDLSLEDF
notes: C-terminal 11 residues (231-241) of RSV phosphoprotein P; C-terminus uncapped; source: synthetic peptide (Biopeptide Co.), labelled with BODIPY FL SSE, purified on Sephadex LH-20
[8]
  Kd: 0.76 µM

B3: D(pS)DNDL(pS)LEDA (doubly phosphorylated P C-terminal peptide, C-terminal Phe changed to Ala) (peptide)
peptide: D[pS]DNDL[pS]LEDA
notes: source: synthetic peptide (Biopeptide Co.)
[9]
  IC50: 69 µM

B4: DSDNDLSLEDA (unphosphorylated P C-terminal peptide, C-terminal Phe changed to Ala) (peptide)
peptide: DSDNDLSLEDA
notes: also called Ala-modified peptide; source: synthetic peptide (Biopeptide Co.)
[9]
  IC50: > 200 µM

B5: D(pS)DNDLSLEDF (P C-terminal peptide phosphorylated on the N-terminal serine) (peptide)
peptide: D[pS]DNDLSLEDF
notes: as for B1
[4]
  IC50: 44 µM
[6]
  IC50: 2.17 µM

B6: DSDNDL(pS)LEDF (P C-terminal peptide phosphorylated on the C-terminal serine) (peptide)
peptide: DSDNDL[pS]LEDF
notes: as for B1
[4]
  IC50: 31 µM
[6]
  IC50: 1.51 µM

B7: BP5, BODIPY-FL labeled peptide 5 (D(pS)DNDL(pS)LEDF) (peptide)
peptide: {BODIPY(FL)}-D[pS]DNDL[pS]LEDF
notes: as for B2
[8]
  Kd: 0.078 µM

B8: peptide 1, DSDNDLSLEDF (unphosphorylated P C-terminal peptide) (peptide)
peptide: DSDNDLSLEDF
notes: as for B1
[4]
  IC50: 230 µM
[5]
  Kd: ~7.6 µM
[6]
  IC50: 15.3 µM

Source: PMC4239318, “Quantitative investigation of the affinity of human respiratory syncytial virus phosphoprotein C-terminus binding to nucleocapsid protein” (Virology Journal, 2014)
